# Laboratory results taken from patent publication US20230322924A1 (Janssen / Centocor, published 2023).
# Residue numbers refer to the chain shown, from its start.
# T1: chimpanzee PSMA, full length, on HEK293F cells (Pan troglodytes (chimpanzee))
# T1 construct: stably transfected HEK293F cells; also called chimp PSMA; chimp-PSMA HEK
# T1 chain: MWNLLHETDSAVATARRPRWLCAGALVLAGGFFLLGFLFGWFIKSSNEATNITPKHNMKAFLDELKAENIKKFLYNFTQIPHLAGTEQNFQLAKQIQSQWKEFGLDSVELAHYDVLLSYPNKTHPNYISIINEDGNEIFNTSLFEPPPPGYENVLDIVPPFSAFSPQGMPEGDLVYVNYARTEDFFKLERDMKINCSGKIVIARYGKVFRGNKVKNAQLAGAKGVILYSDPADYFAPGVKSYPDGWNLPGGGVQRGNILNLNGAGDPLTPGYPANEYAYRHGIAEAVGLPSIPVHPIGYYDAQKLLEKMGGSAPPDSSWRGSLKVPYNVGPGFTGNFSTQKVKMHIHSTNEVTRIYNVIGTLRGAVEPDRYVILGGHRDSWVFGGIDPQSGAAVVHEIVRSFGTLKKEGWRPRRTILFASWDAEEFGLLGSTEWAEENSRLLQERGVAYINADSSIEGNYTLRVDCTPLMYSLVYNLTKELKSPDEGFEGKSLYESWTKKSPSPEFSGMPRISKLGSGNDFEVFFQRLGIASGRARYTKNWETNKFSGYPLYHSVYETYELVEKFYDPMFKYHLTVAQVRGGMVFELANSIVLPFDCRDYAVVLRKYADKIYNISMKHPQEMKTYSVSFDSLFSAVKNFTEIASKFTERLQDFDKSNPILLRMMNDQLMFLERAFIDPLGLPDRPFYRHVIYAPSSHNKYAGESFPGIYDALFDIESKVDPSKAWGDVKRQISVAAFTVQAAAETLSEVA
# T2: Cynomolgous monkey PSMA, full length, on HEK293F cells (Macaca fascicularis (cynomolgus monkey))
# T2 construct: stably transfected HEK293F cells; also called cyno PSMA; Cyno-PSMA HEK
# T2 chain: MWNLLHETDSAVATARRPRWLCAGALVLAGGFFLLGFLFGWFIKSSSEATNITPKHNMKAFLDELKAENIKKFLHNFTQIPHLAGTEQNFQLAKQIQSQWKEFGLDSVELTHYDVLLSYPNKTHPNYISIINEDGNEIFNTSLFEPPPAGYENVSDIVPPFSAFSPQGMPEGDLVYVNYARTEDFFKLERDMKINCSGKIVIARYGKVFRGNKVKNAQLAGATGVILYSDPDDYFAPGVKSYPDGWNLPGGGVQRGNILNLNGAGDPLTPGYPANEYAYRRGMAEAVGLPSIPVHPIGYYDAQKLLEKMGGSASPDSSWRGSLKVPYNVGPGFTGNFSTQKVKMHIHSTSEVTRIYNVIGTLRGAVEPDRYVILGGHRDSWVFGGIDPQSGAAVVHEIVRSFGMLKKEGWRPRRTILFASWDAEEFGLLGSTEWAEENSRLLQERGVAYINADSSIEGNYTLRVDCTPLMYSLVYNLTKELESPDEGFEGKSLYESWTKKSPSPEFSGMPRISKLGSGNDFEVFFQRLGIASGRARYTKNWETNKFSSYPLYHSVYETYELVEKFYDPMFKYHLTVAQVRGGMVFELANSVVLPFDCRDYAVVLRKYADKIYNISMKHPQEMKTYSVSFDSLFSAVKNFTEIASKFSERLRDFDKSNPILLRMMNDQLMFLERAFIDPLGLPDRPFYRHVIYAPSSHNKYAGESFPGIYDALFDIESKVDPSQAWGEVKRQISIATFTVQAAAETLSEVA
# B1: PSMB109 (Fab, V domains shown)
# VH: QVQLVQSGAEVKKPGSSVKVSCKASGGTFSSYAISWVRQAPGQGLEWMGWISPYNGNANYAQKFQGRVTITADESTSTAYMELSSLRSEDTAVYYCARVNSAALVWERLDYWGQGTLVTVSS
# VL: DIQMTQSPSSLSASVGDRVTITCRASQSIDRWLNWYQQKPGKAPKLLIYAASSLQSGVPSRFSGSGSGTDFTLTISSLQPEDFATYYCQQSPRYPLTFGQGTKVEIK
# notes: mammalian-expressed Fab supernatant (huG1 Fab and human kappa vectors); also called PSMM110
# B2: PSMB55 (Fab, V domains shown)
# VH: EVQLVQSGAEVKKPGESLKISCKGSGYSFTSYWIGWVRQMPGKGLEWMGIIYPGDSDTRYSPSFQGQVTISADKSISTAYLQWSSLKASDTAMYYCARGLPIWYLDYWGQGTLVTVSS
# VL: EIVLTQSPATLSLSPGERATLSCRASQSVASDLAWYQQKPGQAPRLLIYFASNRATGIPARFSGSGSGTDFTLTISSLEPEDFAVYYCQQSITWPFTFGQGTKVEIK
# notes: mammalian-expressed Fab supernatant (huG1 Fab and human kappa vectors); also called PSMM56
# B3: PSMB56 (Fab, V domains shown)
# VH: QVQLVQSGAEVKKPGSSVKVSCKASGGTFSSYAISWVRQAPGQGLEWMGWISPYNGNANYAQKFQGRVTITADESTSTAYMELSSLRSEDTAVYYCARDSDRSYNLDYWGQGTLVTVSS
# VL: not shown
# notes: mammalian-expressed Fab supernatant (huG1 Fab and human kappa vectors); also called PSMM57
# B4: PSMB58 (Fab, V domains shown)
# VH: EVQLVQSGAEVKKPGESLKISCKGSGYSFTSYWISWVRQMPGKGLEWMGIIYPGDSYTRYSPSFQGQVTISADKSISTAYLQWSSLKASDTAMYYCARDYEWELFDSRLDYWGQGTLVTVSS
# VL: not shown
# notes: mammalian-expressed Fab supernatant (huG1 Fab and human kappa vectors); also called PSMM59
# B5: PSMB80 (Fab, V domains shown)
# VH: QVQLVQSGAEVKKPGSSVKVSCKASGGTFDDYAISWVRQAPGQGLEWMGRIDPIEGTANYAQKFQGRVTITADESTSTAYMELSSLRSEDTAVYYCARDRYYYDGVYWYSDYFDYWGQGTLVTVS
# VL: not shown
# notes: mammalian-expressed Fab supernatant (huG1 Fab and human kappa vectors); also called PSMM81
# B6: PSMB84 (Fab, V domains shown)
# VH: EVQLLESGGGLVQPGGSLRLSCAASGFTFDSDWMSWVRQAPGKGLEWVSAISGNGGSTEYADSVKGRFTISRDNSKNTLYLQMNSLRAEDTAVYYCARDPYYYYDGDSYYGMDVWGQGTLVTVSS
# VL: not shown
# notes: mammalian-expressed Fab supernatant (huG1 Fab and human kappa vectors); also called PSMM85
# B7: PSMB86 (Fab, V domains shown)
# VH: QVQLVQSGAEVKKPGSSVKVSCKASGGTFKSYDISWVRQAPGQGLEWMGGIIPIEGTANYAQKFQGRVTITADESTSTAYMELSSLRSEDTAVYYCARDYPAGYGFDYWGQGTLVTVSS
# VL: not shown
# notes: mammalian-expressed Fab supernatant (huG1 Fab and human kappa vectors); also called PSMM87
# B8: C3CB11 (bispecific antibody, IgG4, V domains shown)
# VH 1: QVQLVESGGGVVQPGRSLRLSCVASGFTFSSYGMHWVRQAPGKGLEWVAVISYDGSNKYYADSVKGRFTISRDNSKNTLYLQMNSLRAEGTAVYYCAKDFRSFDWLPPDSASYHGMDVWGQGTTVTVSS
# VL 1: SYELTQPPSVSVSPGQTASITCSGDKLGDKYACWYQQKPGQSPVLVIYQDGKRPSGIPERFSGSNFGNKATLTISGTQAMDEADYYCQAWDRNTVVFGGGTKLTVL
# VH 2: EVQLVESGGGLVQPGGSLRLSCAASGFTFNTYAMNWVRQAPGKGLEWVARIRSKYNNYATYYAASVKGRFTISRDDSKNSLYLQMNSLKTEDTAVYYCARHGNFGNSYVSWFAYWGQGTLVTVSS
# VL 2: QTVVTQEPSLTVSPGGTVTLTCRSSTGAVTTSNYANWVQQKPGQAPRGLIGGTNKRAPGTPARFSGSLLGGKAALTLSGVQPEDEAEYYCALWYSNLWVFGGGTKLTVL
# B9: C3CB12 (bispecific antibody, IgG4, V domains shown)
# VH 1: not shown
# VL 1: B8 VL 1 with D25N, D29A, Y31F, C33S, G51N, F66S, K69T, M80V, R92S, N93S
# VH 2: B8 VH 2
# VL 2: B8 VL 2
# B10: C3CB7 (bispecific antibody, IgG4, V domains shown)
# VH 1: QVQLVQSGSELRKPGASVKVSCKASGYTFTNYAMNWVRQAPGQGLEWMGWINTNTGNPTYAQGFTGRFVFSLDTSVSSAYLQISSLKAEDTAMYYCATDRDRGTDYWGQGTLVTVSS
# VL 1: QSALTQPASVSGSPGQSITISCTGTSSDVGDYNYVSWYQQHPGKVPKLMIYDVSNRPSGVSNRFSGSMSGNTASLTISGLQAEDEADYYCSSYSSSSALEVFGGGTKLTVL
# VH 2: B8 VH 2
# VL 2: B8 VL 2
# B11: C3CB103 (bispecific antibody, IgG4, V domains shown)
# VH 1: B8 VH 1
# VL 1: B8 VL 1
# VH 2: QVQLQQSGPRLVRPSQTLSLTCAISGDSVFNNNAAWSWIRQSPSRGLEWLGRTYYRSKWLYDYAVSVKSRITVNPDTSRNQFTLQLNSVTPEDTALYYCARGYSSSFDYWGQGTLVTVSS
# VL 2: QSALTQPASVSGSPGQSITISCTGTSSNIGTYKFVSWYQQHPDKAPKVLLYEVSKRPSGVSSRFSGSKSGNTASLTISGLQAEDQADYHCVSYAGSGTLLFGGGTKLTVL
# B12: C3CB102 (bispecific antibody, IgG4, V domains shown)
# VH 1: not shown
# VL 1: B8 VL 1 with D25N, D29A, Y31F, C33S, G51N, F66S, K69T, M80V, R92S, N93S
# VH 2: B11 VH 2
# VL 2: B11 VL 2
# Target: T1, chimpanzee PSMA, full length, on …
# Experiment: flow cytometry, Fab supernatant, chimp PSMA HEK cells
# Method: (§1) Individual Fab clones were isolated from the round 3 output of all panning experiments following pIX excision. Fab clones were tested for binding to chimp and cyno PSMA expressing HEK cells, as well as to human PSMA on LNCaP cells. Briefly, PSMA expressing cells were aliquoted into a V-bottom plate (CoStar 3357) at a density of 200,000 per well and incubated with (100 μl) supernatants expressing Fab fragments for 1 hour on ice. Cells were washed twice with PBS containing 2% FBS, and stained with a mouse anti-human kappa-RPE antibody (Life Technologies cat #MH10514) for 1 hour on ice. Cells were washed twice with PBS containing 2% FBS and resuspended in […] of the same wash buffer. Plates were read on a BD FACS Array flow cytometer. FACS data was analyzed in FlowJo software by live gating the healthy population of cells using forward scatter and side scatter, and then analyzing the cells within this gate for PE staining. Mean fluorescence intensity (MFI) was calculated and exported into Microsoft Excel. […] Fabs were sequenced and moved forward for cloning into mammalian expression vector for rescreening. True positives were selected from the binding of mammalian cell expressed Fab supernatants to PSMA-expressing cell lines.
# (§2) Confirmation of mammalian expressed Fab supernatants was performed using the whole cell binding assay described previously. Binding of Fabs to human PSMA (LNCaP), chimpanzee, and cynomolgous monkey cells was tested, as well as counter screening for no binding to the parental HEK cell line.
row,Binder,Geo-MFI
1,B1,326
2,B2,180
3,B3,34.7
4,B4,192
5,B5,18.6
6,B6,729
7,B7,176

# Target: T2, Cynomolgous monkey PSMA, full length, …
# Experiment: flow cytometry, Fab supernatant, cyno PSMA HEK cells
# Method: as §1, §2
row,Binder,Geo-MFI
1,B1,321
2,B2,226
3,B3,95.6
4,B4,121
5,B5,19.6
6,B6,750
7,B7,224

# Target: Human CD33 full length (human, UniProt P20138 18-364)
# Sequence (P20138 18-364 limits assumed): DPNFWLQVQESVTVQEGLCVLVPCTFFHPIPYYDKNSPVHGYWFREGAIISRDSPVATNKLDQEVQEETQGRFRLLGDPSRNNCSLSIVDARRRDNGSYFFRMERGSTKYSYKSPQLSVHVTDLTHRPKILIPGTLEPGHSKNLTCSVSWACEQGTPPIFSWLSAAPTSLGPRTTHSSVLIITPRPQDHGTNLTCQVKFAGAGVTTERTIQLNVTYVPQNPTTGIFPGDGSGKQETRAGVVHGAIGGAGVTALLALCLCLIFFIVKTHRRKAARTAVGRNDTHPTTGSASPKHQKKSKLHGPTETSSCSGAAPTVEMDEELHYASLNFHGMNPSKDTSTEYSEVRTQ
# Experiment: cell-based or functional assay
row,Binder,Primary AML Cell Killing EC50
1,B8,3.96 nM
2,B9,2.63 nM
3,B10,0.332 nM
4,B11,4.19 nM
5,B12,4.97 nM

# Target: T3, human PSMA on LNCaP cells (human, UniProt Q04609 1-750)
# T3 construct: PSMA of the LNCaP prostate cancer cell line itself
# T3 sequence (Q04609 whole entry): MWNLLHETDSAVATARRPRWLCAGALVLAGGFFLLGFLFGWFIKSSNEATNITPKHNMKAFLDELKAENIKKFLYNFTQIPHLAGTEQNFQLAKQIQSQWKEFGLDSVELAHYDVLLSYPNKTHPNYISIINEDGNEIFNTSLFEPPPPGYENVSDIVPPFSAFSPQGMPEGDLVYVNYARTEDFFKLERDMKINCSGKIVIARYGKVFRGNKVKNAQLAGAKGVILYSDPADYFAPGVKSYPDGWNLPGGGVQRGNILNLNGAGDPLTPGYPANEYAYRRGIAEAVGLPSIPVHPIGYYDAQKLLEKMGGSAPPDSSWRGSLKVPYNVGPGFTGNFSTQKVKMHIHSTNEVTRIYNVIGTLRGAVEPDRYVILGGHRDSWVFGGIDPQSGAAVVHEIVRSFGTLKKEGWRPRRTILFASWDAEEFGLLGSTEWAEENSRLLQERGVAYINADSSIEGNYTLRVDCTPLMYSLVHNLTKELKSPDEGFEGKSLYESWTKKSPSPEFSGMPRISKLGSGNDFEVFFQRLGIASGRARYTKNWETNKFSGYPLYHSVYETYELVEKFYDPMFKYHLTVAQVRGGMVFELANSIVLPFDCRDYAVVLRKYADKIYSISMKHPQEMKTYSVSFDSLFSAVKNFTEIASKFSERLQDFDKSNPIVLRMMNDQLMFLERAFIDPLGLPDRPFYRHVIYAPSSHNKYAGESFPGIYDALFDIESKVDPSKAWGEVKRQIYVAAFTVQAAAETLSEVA
# Experiment: flow cytometry, Fab supernatant, LNCaP cells
# Method: as §1, with “A cell-based binding assay was designed to assess the binding capabilities of individual Fab-his fusions from E. coli supernatants to PSMA-expressing cells. Individual” for “Individual”
# as §2
row,Binder,Geo-MFI
1,B1,34.9
2,B2,17.2
3,B3,24.5
4,B4,25.3
5,B5,20.9
6,B6,192
7,B7,31.7
